Results as given in PMC9408373.
Several values for one entry are separate records, joined by “and”; a condition that tells them apart may be missing. Identical values can stand only once.

Columns and labels:
[1] = molecular target: CDC42 IH variants (four different single residue mutations and a quadruple mutation of the insert helix); assay: fluorescence polarisation; 1 µM mant-GDP-bound CDC42 in the cuvette, IQGAP protein titrated; quadratic ligand binding equation
[2] = molecular target: CDC42 IH variants (four different single residue mutations and a quadruple mutation of the insert helix); assay: fluorescence polarisation; 1 µM mant-GppNHp-bound CDC42 in the cuvette, IQGAP protein titrated; quadratic ligand binding equation
[3] = molecular target: human CDC42 (aa 1-178) 8xSW (human) (UniProt P60953); assay: as above
[4] = molecular target: the CDC42 variants (2xSW and 8xSW), mGppNHp-bound; assay: as above

Chain of human IQGAP1 C794 (aa 863-1657) (P46940 863-1657): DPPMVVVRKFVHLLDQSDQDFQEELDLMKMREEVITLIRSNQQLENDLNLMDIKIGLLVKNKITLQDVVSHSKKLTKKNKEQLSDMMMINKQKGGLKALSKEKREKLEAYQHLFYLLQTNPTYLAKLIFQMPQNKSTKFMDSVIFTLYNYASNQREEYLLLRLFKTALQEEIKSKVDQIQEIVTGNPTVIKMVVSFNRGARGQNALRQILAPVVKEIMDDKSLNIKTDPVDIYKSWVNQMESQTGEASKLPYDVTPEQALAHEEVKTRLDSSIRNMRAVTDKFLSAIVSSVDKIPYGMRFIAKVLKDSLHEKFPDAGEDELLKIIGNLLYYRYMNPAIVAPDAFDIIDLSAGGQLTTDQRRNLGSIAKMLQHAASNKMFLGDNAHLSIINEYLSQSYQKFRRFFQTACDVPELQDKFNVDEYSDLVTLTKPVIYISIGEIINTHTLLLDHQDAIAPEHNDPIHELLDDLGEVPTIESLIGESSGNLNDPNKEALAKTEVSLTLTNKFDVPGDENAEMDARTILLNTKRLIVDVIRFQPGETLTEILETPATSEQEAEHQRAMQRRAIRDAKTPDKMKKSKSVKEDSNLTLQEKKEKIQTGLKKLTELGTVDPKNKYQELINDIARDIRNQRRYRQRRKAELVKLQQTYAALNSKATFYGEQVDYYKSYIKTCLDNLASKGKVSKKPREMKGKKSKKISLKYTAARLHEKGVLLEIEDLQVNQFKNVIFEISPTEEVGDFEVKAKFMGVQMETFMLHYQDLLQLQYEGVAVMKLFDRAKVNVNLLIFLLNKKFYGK
Chain of human IQGAP1 GRD1 (aa 962-1345) (P46940 962-1345): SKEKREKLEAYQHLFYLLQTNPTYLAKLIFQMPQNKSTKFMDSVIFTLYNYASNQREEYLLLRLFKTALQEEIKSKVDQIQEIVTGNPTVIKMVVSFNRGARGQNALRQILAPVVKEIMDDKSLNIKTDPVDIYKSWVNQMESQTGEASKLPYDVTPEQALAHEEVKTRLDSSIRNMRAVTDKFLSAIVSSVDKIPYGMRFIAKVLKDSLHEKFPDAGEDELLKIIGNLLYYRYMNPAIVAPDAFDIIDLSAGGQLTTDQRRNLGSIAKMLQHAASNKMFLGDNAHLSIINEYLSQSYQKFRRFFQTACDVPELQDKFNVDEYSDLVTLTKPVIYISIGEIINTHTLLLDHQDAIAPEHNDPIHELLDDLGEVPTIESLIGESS
Chain of human CDC42 (aa 1-178) 8xSW (human) (P60953 1-178): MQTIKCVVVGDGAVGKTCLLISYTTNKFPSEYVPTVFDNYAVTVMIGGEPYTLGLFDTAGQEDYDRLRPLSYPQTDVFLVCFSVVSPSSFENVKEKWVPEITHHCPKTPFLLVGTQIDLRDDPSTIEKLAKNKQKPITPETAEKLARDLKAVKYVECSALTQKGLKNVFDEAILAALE

fold lower affinity than for CDC42 WT [1] [fold] | fold lower affinity than for CDC42 WT [2] [fold] | fold reduction in binding affinity against CDC42 WT [3] [fold] | fold reduction in binding affinity against CDC42 WT [4] | Substance
3 | 20 | 86 | – | human IQGAP1 C794 (aa 863-1657) (from UniProt P46940 863-1657) (domain or fragment)
– | – | – | 2 fold and 3 fold | human IQGAP1 GRD1 (aa 962-1345) (from UniProt P46940 962-1345) (domain or fragment)
